Source: patent publication US20060153840A1

Target: UNC5H2 on human umbilical artery endothelial cells (HUAEC) (human) (UniProt Q8IZJ1)
Test: cell-based or functional assay

UniProt Q8IZJ1, sequence (Q8IZJ1 other isoform, or with tags, fused parts or gaps limits assumed): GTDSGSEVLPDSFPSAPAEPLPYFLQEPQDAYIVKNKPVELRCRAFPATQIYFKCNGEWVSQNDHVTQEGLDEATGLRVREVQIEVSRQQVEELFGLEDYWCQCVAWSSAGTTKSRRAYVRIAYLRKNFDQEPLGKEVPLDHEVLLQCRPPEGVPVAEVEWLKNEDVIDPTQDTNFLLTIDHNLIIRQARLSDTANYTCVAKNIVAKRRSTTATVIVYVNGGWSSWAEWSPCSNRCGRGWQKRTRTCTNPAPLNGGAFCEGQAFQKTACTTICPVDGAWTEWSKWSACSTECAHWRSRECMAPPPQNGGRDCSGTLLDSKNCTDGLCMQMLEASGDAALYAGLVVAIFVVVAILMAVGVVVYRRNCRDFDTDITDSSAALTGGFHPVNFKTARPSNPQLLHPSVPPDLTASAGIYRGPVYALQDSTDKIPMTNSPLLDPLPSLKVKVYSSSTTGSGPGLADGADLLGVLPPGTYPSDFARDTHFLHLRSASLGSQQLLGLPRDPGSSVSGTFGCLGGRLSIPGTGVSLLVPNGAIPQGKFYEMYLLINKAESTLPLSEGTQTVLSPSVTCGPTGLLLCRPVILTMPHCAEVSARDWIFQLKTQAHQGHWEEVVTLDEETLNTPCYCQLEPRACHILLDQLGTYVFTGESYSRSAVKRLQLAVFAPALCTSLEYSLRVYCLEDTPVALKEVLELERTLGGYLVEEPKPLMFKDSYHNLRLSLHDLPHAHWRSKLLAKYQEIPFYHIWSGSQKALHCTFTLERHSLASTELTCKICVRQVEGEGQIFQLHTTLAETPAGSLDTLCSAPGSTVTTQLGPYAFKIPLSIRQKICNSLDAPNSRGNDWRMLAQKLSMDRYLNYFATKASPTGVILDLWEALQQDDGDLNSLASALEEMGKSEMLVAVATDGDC

Netrin-1 secreted by stably transfected 293 cells (ligand)
decrease in transwell migration of HUAEC: 40%
